From US20250276077A1, “EPHA2 ANTIBODIES” (Immunome, Inc., priority 2022, published 2025)
Substitutions are numbered along the chain they refer to.

B1: AB-010681: VH SEQ ID NO: 634, VL SEQ ID NO: 699; L29SY; L92SH relative to AB-010361 (antibody, V domains shown)
VH: QVQLQQWGAGLLKPSETLSLTCAVYGGSFSGYYWSWIRQPPGKGLEWIGEINHRGSINYNNYNPSLKSRVTISVDTSKNQFSLKLSSVTAADTAVYYCAKPLRPHCTNGVCYSGDAFDIWGQGTMVTVAS
VL: SYVLTQPPSVSVAPGQTARITCGGNNIGYKNVHWYQQKPGQAPVLVVYDDSDRPSGIPEQFSGSNSGNTATLTISRVEAGDEADYYCQVWDHSSDHVVFGGGTKLTVL
B2: AB-010686: VH SEQ ID NO: 639, VL SEQ ID NO: 704; L93SR relative to AB-010361 (antibody, V domains shown)
VH: B1 VH
VL: B1 VL with Y29S, H92S, S93R
B3: AB-010664: VH SEQ ID NO: 617, VL SEQ ID NO: 682; L23GR; L92SH relative to AB-010357 (antibody, V domains shown)
VH: B1 VH with G31D
VL: B1 VL with G23R, Y29S
B4: AB-010683: VH SEQ ID NO: 636, VL SEQ ID NO: 701; L30KM; L92SH relative to AB-010361 (antibody, V domains shown)
VH: B1 VH
VL: B1 VL with Y29S, K30M
B5: AB-010684: VH SEQ ID NO: 637, VL SEQ ID NO: 702; H107TI; L92SH relative to AB-010361 (antibody, V domains shown)
VH: B1 VH with T107I
VL: B1 VL with Y29S
B6: AB-010678: VH SEQ ID NO: 631, VL SEQ ID NO: 696; L23GR; L92SH relative to AB-010361 (antibody, V domains shown)
VH: B1 VH
VL: B1 VL with G23R, Y29S
B7: AB-010669: VH SEQ ID NO: 622, VL SEQ ID NO: 687; L30KM; L92SH relative to AB-010357 (antibody, V domains shown)
VH: B1 VH with G31D
VL: B1 VL with Y29S, K30M
B8: AB-010673: VH SEQ ID NO: 626, VL SEQ ID NO: 691; L93SE relative to AB-010357 (antibody, V domains shown)
VH: B1 VH with G31D
VL: B1 VL with Y29S, H92S, S93E
B9: AB-010670: VH SEQ ID NO: 623, VL SEQ ID NO: 688; H107TI; L92SH relative to AB-010357 (antibody, V domains shown)
VH: B1 VH with G31D, T107I
VL: B1 VL with Y29S
B10: AB-010667: VH SEQ ID NO: 620, VL SEQ ID NO: 685; L29SY; L92SH relative to AB-010357 (antibody, V domains shown)
VH: B1 VH with G31D
VL: B1 VL
B11: AB-010687: VH SEQ ID NO: 640, VL SEQ ID NO: 705; L93SE relative to AB-010361 (antibody, V domains shown)
VH: B1 VH
VL: B1 VL with Y29S, H92S, S93E
B12: AB-010672: VH SEQ ID NO: 625, VL SEQ ID NO: 690; L93SR relative to AB-010357 (antibody, V domains shown)
VH: B1 VH with G31D
VL: B1 VL with Y29S, H92S, S93R
B13: AB-010688: VH SEQ ID NO: 641, VL SEQ ID NO: 706; L29SY; L93SE relative to AB-010361 (antibody, V domains shown)
VH: B1 VH
VL: B1 VL with H92S, S93E
B14: AB-010674: VH SEQ ID NO: 627, VL SEQ ID NO: 692; L29SY; L93SE relative to AB-010357 (antibody, V domains shown)
VH: B1 VH with G31D
VL: B1 VL with H92S, S93E

Tested on: A549 cells
Experiment: ADCC (KILR target cells, NK92 CD16 chimera effector cells)
Type: cell-based, human
Details: A549 tumor cells; for ADCC - dAct rel. parent, Trial 1: Trial 1, relative to parent antibody; for ADCC - dAct rel. parent, Trial 2: Trial 2, relative to parent antibody
Method: To detect Antibody-dependent cellular cytotoxicity (ADCC), KILR™-transfected target cells were opsonized with different concentrations of the antibody at room temperature for 20 minutes. Following, NK92 cells carrying a mouse extracellular-human intracellular CD16 chimera were added at a 5:1 ratio of effector to target cells. After a 4 h co-culture at 37° C. and 5% CO2, pre-mixed KILR™ detection reagent was added to each well at equal volume and allowed to incubate for 30 min at room temperature in the dark before reading luminescence on a pate reader. Cytotoxicity was calculated after background (spontaneous release) subtraction and expressed as percent of a maximum lysis control.

Row | Molecule | EC50 | ADCC - dAct rel. parent, Trial 1 | ADCC - dAct rel. parent, Trial 2
1 | B1 | ~8 pM | 152.1% | 104.6%
2 | B2 | – | 132.3% | –
3 | B3 | – | 167.7% | –
4 | B4 | – | 174.8% | 100.0%
5 | B5 | – | 166.6% | 115.4%
6 | B6 | – | 154.2% | 93.9%
7 | B7 | – | 177.7% | –
8 | B8 | – | 166.4% | –
9 | B9 | – | 178.2% | –
10 | B10 | – | 154.8% | 108.9%
11 | B11 | – | 166.8% | –
12 | B12 | – | 162.9% | –
13 | B13 | – | 129.9% | 108.0%
14 | B14 | – | 171.2% | 97.2%
